Test results from patent US20210221885A1 (NANJING LEADS BIOLABS, published 2021).

T1: Human TIM-3 protein (Acrobiosystems, Cat#TM3-H5229) (human, UniProt Q8TDQ0 22-200)
T1 construct: Bought protein; also called recombinant human TIM-3; TIM-3 recombinant protein
T1 sequence (looked up): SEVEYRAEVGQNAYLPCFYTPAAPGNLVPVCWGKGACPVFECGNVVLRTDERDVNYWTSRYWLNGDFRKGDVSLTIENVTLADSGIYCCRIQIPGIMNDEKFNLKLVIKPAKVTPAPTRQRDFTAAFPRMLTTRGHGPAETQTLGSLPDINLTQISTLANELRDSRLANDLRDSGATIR

T2: Eu3+ cryptate labeled TIM3 (Cisbio kit, cat# 63ADK000CTLPEB) (human, UniProt Q8TDQ0 22-202, limits assumed, Eu3+ cryptate label)
T2 construct: Kit reagent; construct not described; also called Tim3-EuK protein; Tim3-EuK
T2 sequence (looked up): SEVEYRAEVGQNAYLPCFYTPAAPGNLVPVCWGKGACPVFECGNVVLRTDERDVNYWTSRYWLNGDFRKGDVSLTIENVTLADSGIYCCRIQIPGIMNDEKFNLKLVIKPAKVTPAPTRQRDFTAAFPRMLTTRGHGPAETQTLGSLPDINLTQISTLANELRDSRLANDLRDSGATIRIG

T3: human TIM-3 stably expressed on CHO-K1 cells (human, UniProt Q8TDQ0 22-301)
T3 construct: whole, on cells; also called CHO-K1-TIM-3; cell surface TIM-3
T3 sequence (looked up): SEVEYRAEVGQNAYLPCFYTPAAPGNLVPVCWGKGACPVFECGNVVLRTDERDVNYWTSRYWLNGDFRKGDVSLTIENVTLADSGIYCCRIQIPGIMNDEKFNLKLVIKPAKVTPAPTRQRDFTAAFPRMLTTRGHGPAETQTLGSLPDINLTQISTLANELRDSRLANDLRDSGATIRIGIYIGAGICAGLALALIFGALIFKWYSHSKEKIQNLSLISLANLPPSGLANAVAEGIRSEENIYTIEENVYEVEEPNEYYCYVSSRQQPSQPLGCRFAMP

T4: Human TIM-4 (Sino biological, Cat#12161-H08H) (human, UniProt Q96H15 25-315)
T4 construct: Bought protein; construct not described
T4 sequence (looked up): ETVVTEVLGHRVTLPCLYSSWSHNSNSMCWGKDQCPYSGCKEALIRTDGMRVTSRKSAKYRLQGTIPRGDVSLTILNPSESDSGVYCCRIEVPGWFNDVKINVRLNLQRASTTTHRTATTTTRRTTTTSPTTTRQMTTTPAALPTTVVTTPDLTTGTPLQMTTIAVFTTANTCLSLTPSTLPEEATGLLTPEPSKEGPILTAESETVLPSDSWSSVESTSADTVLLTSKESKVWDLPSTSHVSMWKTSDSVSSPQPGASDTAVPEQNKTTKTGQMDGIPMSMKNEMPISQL

T5: Human TIM-1 (Sino biological, Cat#11051-HNCH) (human, UniProt Q96D42 21-295, limits assumed)
T5 construct: Bought protein; construct not described
T5 sequence (looked up): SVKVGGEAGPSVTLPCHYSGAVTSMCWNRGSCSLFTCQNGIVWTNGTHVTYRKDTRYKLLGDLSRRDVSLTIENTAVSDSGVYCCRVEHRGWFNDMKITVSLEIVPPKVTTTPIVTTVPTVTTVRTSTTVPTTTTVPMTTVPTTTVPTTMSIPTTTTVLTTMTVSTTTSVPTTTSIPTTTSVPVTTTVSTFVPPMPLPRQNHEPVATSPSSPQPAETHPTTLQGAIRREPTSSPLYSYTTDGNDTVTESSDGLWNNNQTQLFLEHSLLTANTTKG


Tests used:
[1] = target: T1, Human TIM-3 protein (Acrobiosystems, …); assay: ELISA, human TIM-3 coated at 1 ug/mL, detection with peroxidase-labeled anti-human IgG, OD450-620
Procedure: (§1) An ELISA assay was used for determination of the relative binding activity of antibodies to recombinant human TIM-3.
(§2) Human TIM-3 protein (Acrobiosystems, Cat#TM3-H5229) in carbonate buffer (pH 9.6, 1.59 g sodium carbonate and 2.93 g sodium bicarbonate dissolved in 1L water) was immobilized onto 96-well plates at 1μg/mL by incubation overnight at 4° C. The plates were then blocked with 1% BSA in PBS for one hour at 37° C. After blocking, the plates were washed three times with PBST (PBS containing 0.05% Tween20). […] After binding, the plates were washed three times with PBST, incubated for one hour at 37° C. with peroxidase-labeled donkey anti-human IgG (Jackson Immuno Research) diluted 1/15,000 in binding buffer, washed again, developed with TMB and stopped with 1M H₂SO₄.
(§3) The absorbance at 450 nm-620 nm was determined.

[2] = target: T2, Eu3+ cryptate labeled TIM3 (Cisbio kit, …); assay: HTRF blocking assay (Cisbio kit), antibody added to a mixture of Tim3-EuK and Tag-Gal9; blocked ligand galectin-9; the unit is that of the concentration axis
Procedure: The resultant mixture was incubated for 1 h at room temperature and then the fluorescence emission was read.

[3] = target: T3, human TIM-3 stably expressed on CHO-K1 …; assay: flow cytometry on CHO-K1-TIM-3 cells, detection with PE anti-human IgG Fc, MFI; the unit is that of the concentration axis
Procedure: Anti-TIM-3 antibodies were tested for their binding ability to human TIM-3 stably expressed on CHO-K1 cells. A Chinese hamster ovary epithelial CHO-K1 cell line (ATCC, cat# CCL-61) was maintained in F-12K medium containing 10% FBS in a humidified incubator with 5% CO₂ at 37° C. Polyethylenimine (MW25K, 23966-2, Polyscience) was diluted to 1 mg/mL, and added to and incubated with pcDNA3.1 vector containing TIM-3 cDNA (NP_116171.3) at 37° C. for 10 mins. The mixture was added to and incubated with cell culture for 3hrs for DNA transfection.
The anti-TIM-3 antibodies were serially diluted in PBS buffer with 0.5% BSA. The antibodies were added to and incubated with CHO-K1-TIM-3 cells at 4° C. for 30min. The cells were pelleted (3 minutes, 600×g), washed once using PBS buffer with 0.5% BSA and re-pelleted. Then, the cells were incubated with a PE conjugated AffiniPure Goat Anti-human IgG, Fcγ Fragment Specific (Jackson ImmunoResearch Cat#109-116-098) diluted at 1:100 at 4 ° C. for 30mins. Cells were washed twice as described above, resuspended in PBS buffer. The cells were then sent to the […] flow cytometer (BD Bioscience) for binding activity analysis. The EC₅₀ values were calculated.

[4] = target: T1, Human TIM-3 protein (Acrobiosystems, …); assay: SPR, Biacore T200; antibody captured on anti-human IgG (Fc), human TIM-3 injected at 1.56-50 nM; 1:1 Langmuir fit
Procedure: The kinetic binding activity of anti-TIM-3 antibodies to human TIM-3 (Acrobiosystems, Cat#TM3-H5229) was measured by surface plasmon resonance using a Biacore® T200 system (Biacore, GE Healthcare).
Approximately 6800 RU of Anti-Human IgG (Fc) antibody (GE Catalog # BR-1008-39) was immobilized via amine coupling chemistry onto a CMS sensor chip. […] HBS-EP+ buffer was used as the running buffer. Varying concentrations of human TIM-3 protein, ranging from 1.56 nM to 50 nM, were injected over the antibody surfaces. Following each injection cycle, the CMS chip surface was regenerated using injection of 3M magnesium chloride solution. Background subtraction binding sensorgrams were used for analyzing the rate of association Ka and dissociation Kd, and the equilibrium dissociation constant KD. The resulting data sets were fitted with a 1:1 Langmuir Binding Model using the Biacore T200 evaluation software.

[5] = target: T4, Human TIM-4 (Sino biological, …); assay: ELISA, human TIM-4 coated, serially diluted antibody
Procedure: (§4) After blocking, the plates were washed three times with PBST (PBS containing 0.05% Tween20). […] After binding, the plates were washed three times with PBST, incubated for one hour at 37° C. with peroxidase-labeled donkey anti-human IgG (Jackson Immuno Research) diluted 1/15,000 in binding buffer, washed again, developed with TMB and stopped with 1M H₂SO₄.
as §3

[6] = target: T5, Human TIM-1 (Sino biological, …); assay: ELISA, human TIM-1 coated, serially diluted antibody
Procedure: as §4, §3

[7] = target: T1, Human TIM-3 protein (Acrobiosystems, …); assay: ELISA, human TIM-3 coated at 1 ug/mL, detection with peroxidase-labeled anti-human IgG, OD450-620; the unit is that of the concentration axis
Procedure: as §1, §2, §3

[8] = target: C1q (Calbiochem, Cat#204876) (UniProt P02745 23-245; P02746 28-253; P02747 29-245); assay: ELISA, antibody coated, C1q added, anti-C1q-HRP detection
Chain of C1q (Calbiochem, Cat#204876) (P02745 23-245, chain 1 of 3): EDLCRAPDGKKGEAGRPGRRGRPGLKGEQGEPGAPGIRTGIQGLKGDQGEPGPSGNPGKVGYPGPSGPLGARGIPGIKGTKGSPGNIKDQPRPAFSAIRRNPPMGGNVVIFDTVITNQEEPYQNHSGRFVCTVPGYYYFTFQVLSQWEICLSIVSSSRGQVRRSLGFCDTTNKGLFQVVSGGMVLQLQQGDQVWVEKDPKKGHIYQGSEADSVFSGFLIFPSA
Chain of C1q (Calbiochem, Cat#204876) (P02746 28-253, chain 2 of 3): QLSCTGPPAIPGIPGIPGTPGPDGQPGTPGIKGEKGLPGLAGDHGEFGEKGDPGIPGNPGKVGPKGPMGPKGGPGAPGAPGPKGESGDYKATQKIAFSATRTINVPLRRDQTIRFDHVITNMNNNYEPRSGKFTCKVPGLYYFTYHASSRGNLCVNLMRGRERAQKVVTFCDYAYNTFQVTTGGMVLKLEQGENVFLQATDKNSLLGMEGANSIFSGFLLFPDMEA
Chain of C1q (Calbiochem, Cat#204876) (P02747 29-245, chain 3 of 3): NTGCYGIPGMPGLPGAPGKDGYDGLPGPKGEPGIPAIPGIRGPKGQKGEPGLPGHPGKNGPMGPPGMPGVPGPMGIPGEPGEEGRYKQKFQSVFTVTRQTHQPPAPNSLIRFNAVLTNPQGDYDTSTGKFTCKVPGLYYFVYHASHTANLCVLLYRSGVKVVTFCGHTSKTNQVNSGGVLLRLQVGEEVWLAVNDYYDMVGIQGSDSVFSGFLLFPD

| Binder | IC50 [2] [nM] | Kd [4] [nM] | koff [4] [s⁻¹] | kon [4] [M⁻¹ s⁻¹] | EC50 [7] [nM] | further results |
| --- | --- | --- | --- | --- | --- | --- |
| anti-TIM-3 antibody TIM3-6.11 (antibody, human IgG1, lambda, L234A L235A, V domains shown) VH: QVQLVQSGAEVKKPGSSVKVSCKASGGTFSSYTIYWVRQAPGQGLEWMGSIIPILGTANYAQKFQGRVTITADESTSTAYMELSSLRSEDTAVYYCASASHTIWGQGTLVTVSS VL: QAVVTQEPSLTVSPGGTVTLTCASSTGAVTSGYTPNWFQQRPGQAPRALIYTTSNRHSWTPARFSGSLLGGKAALTLSGVQPEDEADYYCLLYYGGAWVFGGGTKLTVLG | – | 1.5 | 0.000344 | 230000 | – | – |
| anti-TIM-3 antibody TIM3-6.12 (antibody, human IgG1, lambda, L234A L235A, In the internalization assay the antibody carried pHAb amine reactive dye) heavy: not shown light: QAVVTQEPSLTVSPGGTVTLTCASSTGAVTSGYTPNWFQQRPGQAPRALIYTTNNRHSWTPARFSGSLLGGKAALTLSGVQPEDEADYYCLLYYGGAWVFGGGTKLTVLGQPKAAPSVTLFPPSSEELQANKATLVCLISDFYPGAVTVAWKADSSPVKAGVETTTPSKQSNNKYAASSYLSLTPEQWKSHRSYSCQVTHEGSTVEKTVAPTEC | – | 1.66 | 0.00037 | 223000 | 0.0915 | EC50 [3]: 0.746 nM; binding result [8]: no binding |
| anti-TIM-3 antibody TIM3-6.10 (antibody, human IgG1, lambda, L234A L235A, V domains shown) VH: QVQLVQSGAEVKKPGSSVKVSCKASGGTFSSYTIYWVRQAPGQGLEWMGSIIPILGTANYAQKFQGRVTITADESTSTAYMELSSLRSEDTAVYYCASASHTIWGQGTLVTVSS VL: QAVVTQEPSLTVSPGGTVTLTCASSTGAVTSGNTPNWFQQRPGQAPRALIYTTSNRHSWTPARFSGSLLGGKAALTLSGVQPEDEADYYCLLYYGGAWVFGGGTKLTVLG | – | 2.05 | 0.000415 | 202000 | – | – |
| anti-TIM-3 antibody TIM3-4G7 (antibody, human IgG4 S228P, kappa, V domains shown, Full-length IgG) VH: EVQLVETGGGLVQPGGSLRLSCAASGFTFSSYAMSWVRQAPGKGLEWVSGISGSGGSTYYADSVKGRFTTSRDNSENTLYLQMNSLRAEDTAVYYCAGSYYDDAFDIWGQGTLVTVSS VL: ETTLTQSPATLSLSPGDTATLSCRASQSVTKDLVAWYQQRPGQAPRLLLYGASSRATGIPDRFSGSGSGTDFTLTISRLEPEDFAVYYCQQYGRSPLTFGGGTKVEIKR | 4.73 | – | – | – | – | EC50 (read off the curve) [1]: 2 to 3 nM |
| anti-TIM-3 antibody TIM3-11 (antibody, human IgG4 S228P, lambda, V domains shown, Full-length IgG) VH: QVQLQQSGPGLVKPSQTLSLTCAISGDSVSSNSAAWNWIRQSPSRGLEWLGRTYYRSKWYNDYAVSVKSRITINPDTSKNQFSLQLNSVTPEDTAVYYCARDQAAGFPQPYIYGMDVWGKGTMVTVSS VL: LPVLTQPPSVSKGLRQTATLTCTGNSNNVGNQGAAWLQQHQGHPPKLLTYRTNNRPSGISERFSASRSGNTASLTITGLQPEDEADYYCSGWDSSLNEGVFGGGTKLTVLG | 3.56 | – | – | – | 5.08 | – |

Now from value to binder, other results behind:

| IC50 [2] [nM] | Kd [4] [nM] | koff [4] [s⁻¹] | kon [4] [M⁻¹ s⁻¹] | EC50 [7] [nM] | Binder | further results |
| --- | --- | --- | --- | --- | --- | --- |
| 5.87 | – | – | – | – | ABTIM3 analog (antibody, human IgG4 S228P, kappa, V domains shown) VH: QVQLVQSGAEVKKPGASVKVSCKASGYTFTSYNMHWVRQAPGQGLEWIGDIYPGSGDTSYNQKFKGRATMTADKSTSTVYMELSSLRSEDTAVYYCARVGGAFPMDYWGQGTLVTVSS VL: DIVLTQSPDSLAVSLGERATINCRASESVEYYGTSLMQWYQQKPGQPPKLLIYAASNVESGVPDRFSGSGSGTDFTLTISSLQAEDVAVYYCQQSRKDPSTFGGGTKVEIKR | EC50 (read off the curve) [1]: ~0.08 nM; EC50 [3]: 0.543 nM |
| 1.88 | – | – | – | 9.24 | anti-TIM-3 antibody TIM3-6 (antibody, human IgG4 S228P, lambda, V domains shown, Full-length IgG expressed in CHO-S cells) VH: QVQLVQSGAEVKKPGSSVKVSCKASGGTFSSYTISWVRQAPGQGLEWMGRIIPILGTANYAQKFQGRVTITADESTSTAYMELSSLRSEDTAVYYCASASHTIWGKGTLVTVSS VL: QAVVTQEPSLTVSPGGTVTLTCASSTGAVTSGYSPNWFQQRPGQAPRALIYTTSNRHSWTPARFSGSLLGGKAALTLSGVQPEDEADYYCLLYYGGAWVFGGGTKLTVLG | binding result [5]: no binding; binding result [6]: no binding |
